According to paper PMC4243247 (Nature Communications, 2014):
Positions count from the first letter of the chain named. Numbers in names are those of the source.

How the values were obtained:
[1] = molecular target: T1, N-terminally TAMRA-labelled ubiquitin (UniProt P0CG48 1-76, TAMRA on the N-terminus); assay: fluorescence polarisation; stopped-flow, dissociation: USP4 constructs (12.5–250 nM) incubated with 2.5 nM TAMRA-ubiquitin 10–30 min, mixed with equal volume of 2.5 μM non-labelled ubiquitin; 20 °C; 20 mM HEPES pH 7.5, 150 mM NaCl, 5 mM DTT, 0.05% Tween 20; global fit to a two-phase decay (k_slow, k_fast); settings: both partners purified
T1 construct: ubiquitin, the cut product of the ubiquitin precursors; also called TAMRAUb; TAMRA-Ubiquitin

[2] = molecular target: T1, N-terminally TAMRA-labelled ubiquitin; assay: fluorescence polarisation; stopped-flow, association: equal volumes of USP4 (100–1,000 nM) and TAMRA-ubiquitin rapidly mixed; 20 °C; 20 mM HEPES pH 7.5, 150 mM NaCl, 5 mM DTT, 0.05% Tween 20; single exponential, kon as slope of Kobs against USP4 concentration; settings: both partners purified
[3] = molecular target: T1, N-terminally TAMRA-labelled ubiquitin; assay: fluorescence polarisation; equilibrium: different concentrations of USP4 with 2.5 nM TAMRA-ubiquitin; same setup as the Ub–Rhod assays (25 °C, 20 mM HEPES pH 7.5, 150 mM NaCl, 5 mM DTT, 0.05% Tween 20); one-site binding model accounting for ligand depletion; settings: both partners purified
[4] = molecular target: T2, USP4 CD (residues 296–925), biotinylated on lysines (human, UniProt Q13107 296-925, biotin on lysines (half molar amounts of EZ-Link Sulfo-NHS-LC-LC-biotin)); assay: SPR; Biacore T100, 25 °C; ~100 RU of biotinylated USP4 construct on SA chip; DUSP–Ubl concentration series flowed at 30 μl/min in 20 mM HEPES pH 7.5, 150 mM NaCl, 5 mM DTT, 0.05% Tween 20 with NSB reducer; apparent KD from EvilFit after removing the slow nonspecific off-rate component; settings: both partners purified
T2 construct: USP4, human, catalytic domain with the insert, residues 296-925; same construct as m2, biotinylated for capture on the SA sensor chip; also called immobilized USP4 CD; biotinylated USP4; source: E. coli BL21(DE3), purified, then biotinylated
T2 sequence (looked up): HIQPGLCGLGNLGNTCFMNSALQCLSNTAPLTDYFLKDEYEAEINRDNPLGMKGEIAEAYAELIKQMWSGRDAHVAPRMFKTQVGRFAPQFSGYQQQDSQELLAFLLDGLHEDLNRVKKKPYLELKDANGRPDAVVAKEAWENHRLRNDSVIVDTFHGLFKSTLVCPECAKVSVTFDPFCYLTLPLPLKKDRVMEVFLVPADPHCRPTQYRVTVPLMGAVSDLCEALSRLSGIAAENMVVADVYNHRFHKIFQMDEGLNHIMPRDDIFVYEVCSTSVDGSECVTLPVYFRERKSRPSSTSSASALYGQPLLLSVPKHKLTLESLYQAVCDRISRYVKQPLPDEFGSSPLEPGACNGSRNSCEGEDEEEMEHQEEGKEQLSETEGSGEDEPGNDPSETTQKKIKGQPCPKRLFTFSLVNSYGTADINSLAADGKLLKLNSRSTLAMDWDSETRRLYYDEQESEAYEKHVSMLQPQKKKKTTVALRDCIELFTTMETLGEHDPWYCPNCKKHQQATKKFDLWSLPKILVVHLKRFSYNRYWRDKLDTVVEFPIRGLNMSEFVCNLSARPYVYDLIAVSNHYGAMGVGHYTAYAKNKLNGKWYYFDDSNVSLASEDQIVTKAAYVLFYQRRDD

[5] = molecular target: T3, USP4 insert (residues 483–765), biotinylated on lysines (human, UniProt Q13107 483-765, biotin on lysines (half molar amounts of EZ-Link Sulfo-NHS-LC-LC-biotin)); assay: as above; settings: both partners purified
T3 construct: USP4, human, the domain inserted within the catalytic core (carries a Ubl domain), residues 483-765; source: E. coli BL21(DE3), purified, then biotinylated
T3 sequence (looked up): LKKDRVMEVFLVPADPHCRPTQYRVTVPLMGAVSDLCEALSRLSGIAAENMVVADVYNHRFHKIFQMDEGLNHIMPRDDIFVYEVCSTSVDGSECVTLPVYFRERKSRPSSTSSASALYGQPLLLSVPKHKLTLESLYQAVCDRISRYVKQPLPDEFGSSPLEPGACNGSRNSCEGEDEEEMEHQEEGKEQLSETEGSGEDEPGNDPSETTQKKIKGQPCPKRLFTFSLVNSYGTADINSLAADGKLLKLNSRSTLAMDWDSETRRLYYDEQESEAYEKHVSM

[6] = molecular target: T4, USP4 catalytic domain (USP4 CD, residues 296–925) (human, UniProt Q13107 296-925); assay: cell-based or functional assay
T4 sequence (looked up): T2 sequence (looked up)

B1: USP4 CD F386G (domain or fragment, human, UniProt Q13107 296-925, looked up)
chain: T2 sequence (looked up) with F91G
notes: USP4, human, catalytic domain residues 296-925, switching loop mutant F386G; made with the QuickChange mutagenesis kit
k_fast (dissociation, fast component) [1]: 0.12 ± 0.016 s⁻¹ | k_slow (dissociation, slow component) [1]: 0.015 ± 0.0006 s⁻¹ | kon [2]: 35000 ± 7000 M⁻¹ s⁻¹ | Kd [3]: ~1 µM

B2: USP4 FL F386G (enzyme, human, UniProt Q13107 8-925, looked up)
chain: RERPDAETQKSELGPLMRTTLQRGAQWYLIDSRWFKQWKKYVGFDSWDMYNVGEHNLFPGPIDNSGLFSDPESQTLKEHLIDELDYVLVPTEAWNKLLNWYGCVEGQQPIVRKVVEHGLFVKHCKVEVYLLELKLCENSDPTNVLSCHFSKADTIATIEKEMRKLFNIPAERETRLWNKYMSNTYEQLSKLDNTVQDAGLYQGQVLVIEPQNEDGTWPRQTLQSKSSTAPSRNFTTSPKSSASPYSSVSASLIANGDSTSTCGMHSSGVSRGGSGFSASYNCQEPPSSHIQPGLCGLGNLGNTCFMNSALQCLSNTAPLTDYFLKDEYEAEINRDNPLGMKGEIAEAYAELIKQMWSGRDAHVAPRMFKTQVGRFAPQGSGYQQQDSQELLAFLLDGLHEDLNRVKKKPYLELKDANGRPDAVVAKEAWENHRLRNDSVIVDTFHGLFKSTLVCPECAKVSVTFDPFCYLTLPLPLKKDRVMEVFLVPADPHCRPTQYRVTVPLMGAVSDLCEALSRLSGIAAENMVVADVYNHRFHKIFQMDEGLNHIMPRDDIFVYEVCSTSVDGSECVTLPVYFRERKSRPSSTSSASALYGQPLLLSVPKHKLTLESLYQAVCDRISRYVKQPLPDEFGSSPLEPGACNGSRNSCEGEDEEEMEHQEEGKEQLSETEGSGEDEPGNDPSETTQKKIKGQPCPKRLFTFSLVNSYGTADINSLAADGKLLKLNSRSTLAMDWDSETRRLYYDEQESEAYEKHVSMLQPQKKKKTTVALRDCIELFTTMETLGEHDPWYCPNCKKHQQATKKFDLWSLPKILVVHLKRFSYNRYWRDKLDTVVEFPIRGLNMSEFVCNLSARPYVYDLIAVSNHYGAMGVGHYTAYAKNKLNGKWYYFDDSNVSLASEDQIVTKAAYVLFYQRRDD
notes: USP4, human, residues 8-925, switching loop mutant F386G; made with the QuickChange mutagenesis kit
k_fast (dissociation, fast component) [1]: 0.26 ± 0.01 s⁻¹ | k_slow (dissociation, slow component) [1]: 0.024 ± 0.002 s⁻¹

B3: USP4 DUSP–Ubl domain (residues 8–228) (domain or fragment, human, UniProt Q13107 8-228, looked up)
chain: RERPDAETQKSELGPLMRTTLQRGAQWYLIDSRWFKQWKKYVGFDSWDMYNVGEHNLFPGPIDNSGLFSDPESQTLKEHLIDELDYVLVPTEAWNKLLNWYGCVEGQQPIVRKVVEHGLFVKHCKVEVYLLELKLCENSDPTNVLSCHFSKADTIATIEKEMRKLFNIPAERETRLWNKYMSNTYEQLSKLDNTVQDAGLYQGQVLVIEPQNEDGTWPRQT
notes: USP4, human, N-terminal tandem DUSP–Ubl domain, residues 8-228
Kd [4]: ~100 µM | Kd [5]: ~44 µM | Ub–Rhod catalytic rate of USP4 CD (50 nM, 5 μM substrate) with DUSP–Ubl added in trans at different concentrations up to 150 μM [6]: ~9 fold

B4: USP4 DUSP–Ubl Y136A (domain or fragment, human, UniProt Q13107 8-228, looked up)
chain: B3 chain with Y129A
notes: USP4, human, DUSP–Ubl domain residues 8-228 with Y136A at the interface of the DUSP and Ubl domains; also called mutant DUSP–Ubl
binding result [4]: binds | binding result [5]: binds
